Sequences and labels used below:
B1: Clasp-4 C-terminal peptide AA3L, biotinylated (peptide)
peptide: Biotin-CAISGTSSDRGYGSPRYAEV
notes: also called AA3L-V
B2: VCAM1 C-terminal peptide AA17L, biotinylated (peptide)
peptide: Biotin-ARKANMKGSYSLVEAQKSKV
notes: also called CD106
B3: CD44 C-terminal peptide AA9L, biotinylated (peptide)
peptide: Biotin-QFMTADETRNLQNVDMKIGV
notes: also called CD44 (long form)

The results in this text go back to US20050037969A1 (ARBOR VITA, published 2005).

Ends that are not written are not given here. * marks the point of attachment. Biotin = O=C1N[C@H]2[C@H](CS[C@H]2CCCCC(=O)*)N1

T1 sequence (Q2T9M1 other isoform, or with tags, fused parts or gaps limits assumed): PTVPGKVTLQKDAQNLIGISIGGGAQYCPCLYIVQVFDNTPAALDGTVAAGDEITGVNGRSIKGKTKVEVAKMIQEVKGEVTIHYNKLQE

One experiment concerns the target T1, PICK1 PDZ-GST fusion protein (Bos taurus (Bovine), UniProt Q2T9M1 17-105).
T1 construct: Order of GST and PDZ part and limits not seen in the excerpts
The experiment can be described thus: A/G assays.
On to B1, for which the binding result is given as “no binding”.
On the same count and under the same terms, the same measure for B2: “no binding”.
For B3, the binding result is on record as “no binding”.

The next experiment concerns the target T2, K858 PDZ-GST fusion protein (Homo sapiens (Human), UniProt Q8WWI1 1038-1131).
T2 construct: Order of GST and PDZ part and limits not seen in the excerpts
T2 sequence: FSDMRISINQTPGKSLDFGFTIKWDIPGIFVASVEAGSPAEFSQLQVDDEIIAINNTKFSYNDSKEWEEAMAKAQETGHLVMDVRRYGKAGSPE
The experiment can be described thus: A/G assays.
Take B1: the binding result is listed as “no binding”.
As to B2, the binding result is “no binding”.
On to B3, for which the binding result is reported as “no binding”.

The target of another experiment is T3, GEF PDZ-GST fusion protein (Homo sapiens (Human), UniProt Q8TEU7 293-400).
T3 construct: The label GEF is not explained in the excerpts
T3 sequence: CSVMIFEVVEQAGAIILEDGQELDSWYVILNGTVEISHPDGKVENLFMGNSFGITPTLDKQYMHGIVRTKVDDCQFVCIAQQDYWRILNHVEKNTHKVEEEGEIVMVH
The experiment can be described thus: A/G assays.
For the molecule B1, the binding result is given as “no binding”.
On to B2, for which the binding result is recorded as “no binding”.
The same measure, in the same setting: for B3 the value was “no binding”.

In the next experiment the target is T4, TAX-IP2L PDZ-GST fusion protein (Homo sapiens (Human), UniProt Q8TF64 107-197).
T4 construct: Order of GST and PDZ part and limits not seen in the excerpts
T4 sequence: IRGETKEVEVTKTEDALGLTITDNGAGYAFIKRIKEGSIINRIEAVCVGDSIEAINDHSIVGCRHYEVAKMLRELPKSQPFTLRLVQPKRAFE
The experiment can be described thus: A/G assays.
Take B1: the binding result is reported as “no binding”.
Regarding B2, the binding result is on record as “no binding”.
As for B3, the binding result is reported as “no binding”.

In another experiment the target is T5, GST-TAX-IP43 PDZ domain fusion protein (human, UniProt Q13884 109-180).
T5 construct: also called TAX43; not shown: glutathione S-transferase encoded by vector pGEX-3X (Pharmacia)
T5 sequence: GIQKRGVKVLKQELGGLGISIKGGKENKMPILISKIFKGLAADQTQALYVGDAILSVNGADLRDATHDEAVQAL
The experiment can be described thus: A/G assays.
As for B1, the binding result is recorded as “no binding”.
On the same count and under the same terms, the same measure for B2: “no binding”; for B3: “no binding”.

A further experiment concerns the target T6, GST-TAX-IP2 PDZ domain fusion protein (human, UniProt O14908 129-216).
T6 construct: also called TAX-1P2; TAX2; not shown: glutathione S-transferase encoded by vector pGEX-3X (Pharmacia)
T6 chain: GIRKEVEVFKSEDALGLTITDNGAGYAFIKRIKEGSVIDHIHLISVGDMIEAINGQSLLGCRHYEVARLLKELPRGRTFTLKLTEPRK
The experiment can be described thus: A/G assays.
Take B1: the binding result is “no binding”.
The same measure, in the same setting: the same measure for B2: “no binding”; for B3: “no binding”.

A further experiment addresses T7, GST-AF6 PDZ domain fusion protein (Homo sapiens (Human), UniProt P55196 1001-1093).
T7 construct: also called af-6 protein; not shown: glutathione S-transferase encoded by vector pGEX-3X (Pharmacia)
T7 sequence: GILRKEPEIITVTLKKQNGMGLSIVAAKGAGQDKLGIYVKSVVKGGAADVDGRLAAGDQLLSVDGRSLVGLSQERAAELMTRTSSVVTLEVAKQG
The experiment can be described thus: A/G assays.
As for B2, the binding result is “no binding”.
The same measure, in the same setting: for B3 the value was “no binding”.

Another experiment concerns the target T8, ConEn PDZ-GST fusion protein (Homo sapiens (Human), UniProt Q969H4 193-287).
T8 construct: The label ConEn is not explained in the excerpts
T8 sequence: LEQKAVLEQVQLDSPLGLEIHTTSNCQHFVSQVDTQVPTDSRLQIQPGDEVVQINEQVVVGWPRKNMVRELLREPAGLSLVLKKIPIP
The experiment can be described thus: A/G assays.
B1: the binding result is “no binding”.
For the molecule B2, the binding result is on record as “no binding”.
Still for that read-out and setting: for B3 the value was “no binding”.

Another experiment deals with T9, GST-DLG5 (p-dlg) PDZ domain fusion protein (Human, UniProt Q8TDM6 1343-1583).
T9 construct: also called Human discs large protein p-dlg; not shown: glutathione S-transferase encoded by vector pGEX-3X (Pharmacia)
T9 sequence: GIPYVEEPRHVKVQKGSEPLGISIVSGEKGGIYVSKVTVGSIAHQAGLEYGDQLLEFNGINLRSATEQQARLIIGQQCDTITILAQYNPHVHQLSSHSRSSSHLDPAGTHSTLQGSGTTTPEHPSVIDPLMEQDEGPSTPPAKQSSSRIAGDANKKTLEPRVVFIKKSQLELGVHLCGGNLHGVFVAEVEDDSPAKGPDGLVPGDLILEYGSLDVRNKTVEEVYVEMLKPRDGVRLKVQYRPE
The experiment can be described thus: A/G assays.
Regarding B1, the binding result is given as “no binding”.
Still for that read-out and setting: the same measure for B2: “no binding”; for B3: “no binding”.

The next experiment deals with T10, GST-TIAM1 PDZ domain fusion protein (Homo sapiens (Human), UniProt Q13009 845-931).
T10 construct: also called TLAM1; T-lymphoma invasion and metastasis inducing protein 1; not shown: glutathione S-transferase encoded by vector pGEX-3X (Pharmacia)
T10 sequence (Q13009 other isoform, or with tags, fused parts or gaps): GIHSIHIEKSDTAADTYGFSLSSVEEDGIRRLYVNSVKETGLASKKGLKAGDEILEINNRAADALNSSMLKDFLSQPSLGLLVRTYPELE
The experiment can be described thus: A/G assays.
For B1, the binding result is reported as “no binding”.
Turning to B3, the binding result is on record as “no binding”.

A further experiment concerns the target T11, GST-DVL1 PDZ domain fusion protein (human, UniProt O14640 247-339).
T11 construct: also called human dishevelled segment polarity protein homolog; not shown: glutathione S-transferase encoded by vector pGEX-3X (Pharmacia)
T11 sequence: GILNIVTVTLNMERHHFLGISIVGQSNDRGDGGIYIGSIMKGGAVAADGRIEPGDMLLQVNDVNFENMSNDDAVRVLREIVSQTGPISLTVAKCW
The experiment can be described thus: A/G assays.
With B1, the binding result is reported as “no binding”.
Still for that read-out and setting: the same measure for B2: “no binding”.
On the same count and under the same terms, for B3 the value was “no binding”.

The target of the next experiment is T12, SP short PDZ-GST fusion protein (Homo sapiens (Human), UniProt O43464 350-435).
T12 construct: The label SP short is not explained in the excerpts
T12 sequence: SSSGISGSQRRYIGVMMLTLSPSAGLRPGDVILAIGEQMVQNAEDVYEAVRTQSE
The experiment can be described thus: A/G assays.
With B1, the binding result is on record as “no binding”.
Same read-out and setting: the same measure for B2: “no binding”.
The same measure, in the same setting: the same measure for B3: “no binding”.

The target of a further experiment is T13, K316 PDZ-GST fusion protein (Homo sapiens (Human), UniProt Q14CM0 72-159).
T13 construct: Order of GST and PDZ part and limits not seen in the excerpts
T13 sequence (Q14CM0 72-159 limits assumed): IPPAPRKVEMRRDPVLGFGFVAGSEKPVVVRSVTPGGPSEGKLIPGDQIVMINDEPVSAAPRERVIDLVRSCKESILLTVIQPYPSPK
The experiment can be described thus: A/G assays.
Regarding B1, the binding result is given as “no binding”.
Turning to B2, the binding result is on record as “no binding”.
Consider B3, for which the binding result is given as “no binding”.

The next experiment concerns the target T14, TAX-IP33 PDZ-GST fusion protein (Homo sapiens (Human), UniProt O14910 103-193).
T14 construct: Order of GST and PDZ part and limits not seen in the excerpts
T14 sequence: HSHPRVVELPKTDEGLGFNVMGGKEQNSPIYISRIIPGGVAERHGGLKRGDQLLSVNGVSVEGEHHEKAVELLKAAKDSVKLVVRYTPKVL
The experiment can be described thus: A/G assays.
Consider B1, for which the binding result is listed as “no binding”.
Turning to B2, the binding result is recorded as “no binding”.
Turning to B3, the binding result is “no binding”.

Another experiment deals with T15, GST-KIAA0303 PDZ domain fusion protein (Homo sapiens (Human), UniProt O15021 1138-1228).
T15 construct: also called K303; not shown: glutathione S-transferase encoded by vector pGEX-3X (Pharmacia)
T15 sequence: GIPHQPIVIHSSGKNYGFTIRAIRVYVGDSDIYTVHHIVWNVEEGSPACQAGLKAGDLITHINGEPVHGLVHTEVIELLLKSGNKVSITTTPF
The experiment can be described thus: A/G assays.
B1: the binding result is recorded as “no binding”.
B3: the binding result is “no binding”.

The next experiment deals with T16, GST-prIL16 fusion protein (PDZ domains 1-2) (Homo sapiens (Human), UniProt Q14005 1111-1324).
T16 construct: also called putative interleukin 16 precursor; not shown: glutathione S-transferase encoded by vector pGEX-3X (Pharmacia)
T16 sequence: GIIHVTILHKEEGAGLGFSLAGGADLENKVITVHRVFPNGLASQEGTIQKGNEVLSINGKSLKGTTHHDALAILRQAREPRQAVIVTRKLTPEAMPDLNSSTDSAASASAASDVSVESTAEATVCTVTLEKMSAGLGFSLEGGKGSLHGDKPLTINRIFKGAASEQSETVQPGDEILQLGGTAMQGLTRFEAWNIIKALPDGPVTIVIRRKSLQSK
The experiment can be described thus: A/G assays.
On to B1, for which the binding result is “no binding”.
As to B2, the binding result was “no binding”.
